Like-named read-outs stand apart in the source and are kept apart here.
T1: interleukin 18 binding protein (IL-18BP) (UniProt O95998 31-194)
T1 sequence (looked up): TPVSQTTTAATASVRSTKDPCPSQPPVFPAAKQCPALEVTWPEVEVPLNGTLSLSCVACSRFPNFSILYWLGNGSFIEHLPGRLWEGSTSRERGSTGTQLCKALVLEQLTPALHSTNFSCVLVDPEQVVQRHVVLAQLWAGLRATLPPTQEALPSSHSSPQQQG

T2: IL-18 receptor (IL-18Rα and IL-18Rβ) (UniProt Q13478 19-541; O95256 20-599, limits assumed)
T2 sequence (looked up) 1: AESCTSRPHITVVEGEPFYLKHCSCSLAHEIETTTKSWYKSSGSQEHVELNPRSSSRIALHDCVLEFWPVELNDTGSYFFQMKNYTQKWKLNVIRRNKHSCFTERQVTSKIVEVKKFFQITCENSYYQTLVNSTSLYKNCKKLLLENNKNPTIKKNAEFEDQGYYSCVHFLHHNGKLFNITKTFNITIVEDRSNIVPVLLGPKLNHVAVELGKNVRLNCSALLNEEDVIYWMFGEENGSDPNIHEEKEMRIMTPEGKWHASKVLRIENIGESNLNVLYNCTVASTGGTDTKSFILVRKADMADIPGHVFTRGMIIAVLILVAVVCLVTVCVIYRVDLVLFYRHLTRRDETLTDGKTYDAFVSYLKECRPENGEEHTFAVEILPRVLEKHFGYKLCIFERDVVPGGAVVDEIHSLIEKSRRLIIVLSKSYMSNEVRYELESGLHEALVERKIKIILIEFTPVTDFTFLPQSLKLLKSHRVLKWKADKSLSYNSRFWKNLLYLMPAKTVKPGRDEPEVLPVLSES
T2 sequence (looked up) 2: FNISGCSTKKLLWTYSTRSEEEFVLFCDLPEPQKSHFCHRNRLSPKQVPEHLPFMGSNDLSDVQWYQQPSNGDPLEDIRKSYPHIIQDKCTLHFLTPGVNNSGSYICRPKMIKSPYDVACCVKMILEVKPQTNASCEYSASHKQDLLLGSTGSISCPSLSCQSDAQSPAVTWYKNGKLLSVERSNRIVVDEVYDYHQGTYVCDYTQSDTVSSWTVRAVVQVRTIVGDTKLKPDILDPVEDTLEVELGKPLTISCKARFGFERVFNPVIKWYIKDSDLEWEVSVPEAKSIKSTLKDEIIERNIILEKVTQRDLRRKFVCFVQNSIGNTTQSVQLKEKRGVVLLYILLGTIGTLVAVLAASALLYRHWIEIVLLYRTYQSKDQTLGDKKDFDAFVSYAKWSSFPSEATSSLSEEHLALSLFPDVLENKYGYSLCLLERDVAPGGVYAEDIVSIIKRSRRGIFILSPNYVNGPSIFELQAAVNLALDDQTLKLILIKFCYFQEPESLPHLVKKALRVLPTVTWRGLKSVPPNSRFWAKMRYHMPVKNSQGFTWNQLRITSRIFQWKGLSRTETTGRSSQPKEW


Experiments:
Test in all cases: cell-based or functional assay
[1] = target: T1, interleukin 18 binding protein (IL-18BP)
[2] = target: T2, IL-18 receptor (IL-18Rα and IL-18Rβ)
[3] = target: T1, interleukin 18 binding protein (IL-18BP); remark: listed apart in the source
[4] = target: T2, IL-18 receptor (IL-18Rα and IL-18Rβ); remark: listed apart in the source

Binder	EC50 (pM) + 300 nM BP, HEK-blue re-screening [1] [pM]	Ratio (HEK-blue EC50, + 300 nM BP against - BP) [1]	EC50 (pM) - BP, HEK-blue re-screening [2] [pM]	EC50 (pM) + 100 nM BP, HEK-blue re-screening [3] [pM]	Ratio (HEK-blue EC50, + 100 nM BP against - BP) [3]	EC50 (pM) - BP, HEK-blue re-screening [4] [pM]
IL-18 variant G3D, E6G, K53G, D54A, T63S, N91Y, R104Q (ligand) YFDKLGSKLSVIRNLNDQVLFIDQGNRPLFEDMTDSDMRDNAPRTIFIISMYGASQPRGMAVSISVKSEKISTLSSENKIISFKEMNPPDYIKDTKSDIIFFQQSVPGHDNKMQFESSSYEGYFLASEKERDLFKLILKKEDELGDRSIMFTVQNED	3.11	1.2	2.62			
IL-18 variant G3Q, E6Q, K53T, D54W, S55F, N91Y (ligand) YFQKLQSKLSVIRNLNDQVLFIDQGNRPLFEDMTDSDMRDNAPRTIFIISMYTWFQPRGMAVTISVKSEKISTLSSENKIISFKEMNPPDYIKDTKSDIIFFQRSVPGHDNKMQFESSSYEGYFLASEKERDLFKLILKKEDELGDRSIMFTVQNED	2.54	1.1	2.36			
IL-18 variant G3L, E6S, D54T, T63S, N91Y, R104Q (ligand) YFLKLSSKLSVIRNLNDQVLFIDQGNRPLFEDMTDSDMRDNAPRTIFIISMYKTSQPRGMAVSISVKSEKISTLSSENKIISFKEMNPPDYIKDTKSDIIFFQQSVPGHDNKMQFESSSYEGYFLASEKERDLFKLILKKEDELGDRSIMFTVQNED	0.51	25.5	0.02			
IL-18 variant G3I, E6D, D54A, S55F, N91Y, R104H (ligand) YFIKLDSKLSVIRNLNDQVLFIDQGNRPLFEDMTDSDMRDNAPRTIFIISMYKAFQPRGMAVTISVKSEKISTLSSENKIISFKEMNPPDYIKDTKSDIIFFQHSVPGHDNKMQFESSSYEGYFLASEKERDLFKLILKKEDELGDRSIMFTVQNED				3.41	7.6	0.45
IL-18 variant G3P, E6H, N91L (ligand) YFPKLHSKLSVIRNLNDQVLFIDQGNRPLFEDMTDSDMRDNAPRTIFIISMYKDSQPRGMAVTISVKSEKISTLSSENKIISFKEMNPPDLIKDTKSDIIFFQRSVPGHDNKMQFESSSYEGYFLASEKERDLFKLILKKEDELGDRSIMFTVQNED	5.34	1.7	3.21			
IL-18 variant G3P, E6H, D54A, S55P, Q56K, T63S, N91M (ligand) YFPKLHSKLSVIRNLNDQVLFIDQGNRPLFEDMTDSDMRDNAPRTIFIISMYKAPKPRGMAVSISVKSEKISTLSSENKIISFKEMNPPDMIKDTKSDIIFFQRSVPGHDNKMQFESSSYEGYFLASEKERDLFKLILKKEDELGDRSIMFTVQNED	8.23	1.5	5.4			
IL-18 variant G3Q, E6G, D54N, S55H, T63V, N91M, R104T (ligand) YFQKLGSKLSVIRNLNDQVLFIDQGNRPLFEDMTDSDMRDNAPRTIFIISMYKNHQPRGMAVVISVKSEKISTLSSENKIISFKEMNPPDMIKDTKSDIIFFQTSVPGHDNKMQFESSSYEGYFLASEKERDLFKLILKKEDELGDRSIMFTVQNED				2.66	2.7	0.99
IL-18 variant G3Q, E6N, D54Y, S55P, T63S, N91S, R104H (ligand) YFQKLNSKLSVIRNLNDQVLFIDQGNRPLFEDMTDSDMRDNAPRTIFIISMYKYPQPRGMAVSISVKSEKISTLSSENKIISFKEMNPPDSIKDTKSDIIFFQHSVPGHDNKMQFESSSYEGYFLASEKERDLFKLILKKEDELGDRSIMFTVQNED				34.7	3.6	9.63
IL-18 variant G3L, E6Q, D54Y, S55P, T63S, N91S, R104Q (ligand) YFLKLQSKLSVIRNLNDQVLFIDQGNRPLFEDMTDSDMRDNAPRTIFIISMYKYPQPRGMAVSISVKSEKISTLSSENKIISFKEMNPPDSIKDTKSDIIFFQQSVPGHDNKMQFESSSYEGYFLASEKERDLFKLILKKEDELGDRSIMFTVQNED				54.7	40.5	1.35
IL-18 variant G3L, E6Y, D54T, T63S, N91Y, R104Q (ligand) YFLKLYSKLSVIRNLNDQVLFIDQGNRPLFEDMTDSDMRDNAPRTIFIISMYKTSQPRGMAVSISVKSEKISTLSSENKIISFKEMNPPDYIKDTKSDIIFFQQSVPGHDNKMQFESSSYEGYFLASEKERDLFKLILKKEDELGDRSIMFTVQNED	0.37	12.3	0.03			
IL-18 variant G3Q, E6H, D54N, S55I, T63S, N91V (ligand) YFQKLHSKLSVIRNLNDQVLFIDQGNRPLFEDMTDSDMRDNAPRTIFIISMYKNIQPRGMAVSISVKSEKISTLSSENKIISFKEMNPPDVIKDTKSDIIFFQRSVPGHDNKMQFESSSYEGYFLASEKERDLFKLILKKEDELGDRSIMFTVQNED				5.23	16.9	0.31
IL-18 variant E6D, D54T, S55W, T63S, N91S, R104T (ligand) YFGKLDSKLSVIRNLNDQVLFIDQGNRPLFEDMTDSDMRDNAPRTIFIISMYKTWQPRGMAVSISVKSEKISTLSSENKIISFKEMNPPDSIKDTKSDIIFFQTSVPGHDNKMQFESSSYEGYFLASEKERDLFKLILKKEDELGDRSIMFTVQNED				62.8	18.4	3.42
IL-18 variant G3P, E6K, D54R, S55P, T63A, N91V (ligand) YFPKLKSKLSVIRNLNDQVLFIDQGNRPLFEDMTDSDMRDNAPRTIFIISMYKRPQPRGMAVAISVKSEKISTLSSENKIISFKEMNPPDVIKDTKSDIIFFQRSVPGHDNKMQFESSSYEGYFLASEKERDLFKLILKKEDELGDRSIMFTVQNED	10.1	1.1	9.07			
IL-18 variant G3P, E6K, D54Y, S55P, Q56H, T63S, N91S, R104Q (ligand) YFPKLKSKLSVIRNLNDQVLFIDQGNRPLFEDMTDSDMRDNAPRTIFIISMYKYPHPRGMAVSISVKSEKISTLSSENKIISFKEMNPPDSIKDTKSDIIFFQQSVPGHDNKMQFESSSYEGYFLASEKERDLFKLILKKEDELGDRSIMFTVQNED	2.99	1.9	1.58			
IL-18 variant G3P, E6K, D54Y, S55P, T63S, N91S, R104Q (ligand) YFPKLKSKLSVIRNLNDQVLFIDQGNRPLFEDMTDSDMRDNAPRTIFIISMYKYPQPRGMAVSISVKSEKISTLSSENKIISFKEMNPPDSIKDTKSDIIFFQQSVPGHDNKMQFESSSYEGYFLASEKERDLFKLILKKEDELGDRSIMFTVQNED	1.18	1.6	0.73			
IL-18 variant G3Q, E6N (ligand) YFQKLNSKLSVIRNLNDQVLFIDQGNRPLFEDMTDSDMRDNAPRTIFIISMYKDSQPRGMAVTISVKSEKISTLSSENKIISFKEMNPPDNIKDTKSDIIFFQRSVPGHDNKMQFESSSYEGYFLASEKERDLFKLILKKEDELGDRSIMFTVQNED				8.61	172	0.05
IL-18 variant G3D, E6Q, R27S, K53R, D54A, S55R, T63S, N91Q (ligand) YFDKLQSKLSVIRNLNDQVLFIDQGNSPLFEDMTDSDMRDNAPRTIFIISMYRARQPRGMAVSISVKSEKISTLSSENKIISFKEMNPPDQIKDTKSDIIFFQRSVPGHDNKMQFESSSYEGYFLASEKERDLFKLILKKEDELGDRSIMFTVQNED				25.7	6.1	4.22

— patent publication US20240182536A1 (MURAL ONCOLOGY, published 2024)
